B1: Pistol ribozyme (parent)
chain: GGGUCGUUGUUCCAUAAUCGCGUGGAUAUGGCACGCAAGUUUCUACCGGGCACCGUAAAUGUCCGACUGGAGCCGUUCGGGCGGCUAUAAACAGACCUCAGGCCCGAAGCGUGGCGGCACCUGCCGCCGGUGGUAAAAAAGAUCGGAAGAGCACACGUCU

Variants of B1 are the subject of this series. Kind of series: aptazyme ON/OFF ratio, guanine; higher = stronger switching; co-transcriptional cleavage with and without guanine.
For U7G U8A U11C, the “aptazyme ON/OFF ratio” value was found to be 2.05.

As to U7G U8A U11G, the “aptazyme ON/OFF ratio” value stood at 1.24.

Turning to U7G U8A U11A, the “aptazyme ON/OFF ratio” value turned out to be 2.25.

Consider U7G U8C G9A U10C U11C C12A C13U, for which the “aptazyme ON/OFF ratio” value came to 1.2.

With U7G U8C G9A U10C U11C C12A C13G, the “aptazyme ON/OFF ratio” value is 1.28.

Turning to U7G U8C G9A U10C U11C C12A C13A, the “aptazyme ON/OFF ratio” value was 1.2.

On to U7G U8C C12A C13U, for which the “aptazyme ON/OFF ratio” value was 1.08.

U7G U8C C12A C13A: the “aptazyme ON/OFF ratio” value came out at 1.13.

U7G U8C C12A C13G: the “aptazyme ON/OFF ratio” value stood at 1.1.

For U7G U8A U11G C12G, the “aptazyme ON/OFF ratio” value amounted to 1.33.

As to U7G U8A U11G C12A, the “aptazyme ON/OFF ratio” value came out at 1.45.

In the case of U7G U8A U11G C12U, the “aptazyme ON/OFF ratio” value turned out to be 1.25.

Turning to U7G U8C G9A U10A U11A, the “aptazyme ON/OFF ratio” value amounted to 3.25.

For the variant U7G U8C G9A U10A U11C, the “aptazyme ON/OFF ratio” value stood at 1.11.

In the case of U7G U8C G9A U10A U11G, the “aptazyme ON/OFF ratio” value stood at 1.87.

In the case of U7G U8C G9A U10A U11C C13U, the “aptazyme ON/OFF ratio” value was 1.08.

Turning to U7G U8C G9A U10A U11C C13G, the “aptazyme ON/OFF ratio” value is 1.05.

On to U7G U8C G9A U10A U11C C13A, for which the “aptazyme ON/OFF ratio” value stood at 1.1.

Consider U7G U8C G9A, for which the “aptazyme ON/OFF ratio” value worked out at 4.1.

On to U7G U8C G9A U10A C12G, for which the “aptazyme ON/OFF ratio” value was found to be 1.24.

With U7G U8C G9A U10A C12A, the “aptazyme ON/OFF ratio” value is 1.15.

Turning to U7G U8C G9A U10A C12U, the “aptazyme ON/OFF ratio” value came to 1.62.

In the case of U7G U8A U10G U11C C12G C13G, the “aptazyme ON/OFF ratio” value worked out at 1.26.

On to U7G U8A U10G U11C C12G C13U, for which the “aptazyme ON/OFF ratio” value was determined as 1.25.

With U7G U8A U10G U11C C12G C13A, the “aptazyme ON/OFF ratio” value came out at 1.4.

As to U7G U8A U10G U11C C12G, the “aptazyme ON/OFF ratio” value came to 1.02.

As for U7G U8A U10G U11C C12A, the “aptazyme ON/OFF ratio” value is 1.48.

For U7G U8A U10G U11C C12U, the “aptazyme ON/OFF ratio” value turned out to be 1.27.

Turning to U7G U8C G9A U10G U11C, the “aptazyme ON/OFF ratio” value was determined as 1.04.

For U7G U8C G9A U10G U11G, the “aptazyme ON/OFF ratio” value came out at 1.77.

With U7G U8C G9A U10G U11A, the “aptazyme ON/OFF ratio” value turned out to be 1.07.

With U7G U8A U10G U11G C13U, the “aptazyme ON/OFF ratio” value was 1.42.

For U7G U8A U10G U11G C13G, the “aptazyme ON/OFF ratio” value amounted to 1.43.

Turning to U7G U8A U10G U11G C13A, the “aptazyme ON/OFF ratio” value was 1.28.

Regarding U7G U8A U10G U11C, the “aptazyme ON/OFF ratio” value worked out at 2.11.

Consider U7G U8A U10G U11G, for which the “aptazyme ON/OFF ratio” value is 1.59.

As to U7G U8A U10G U11A, the “aptazyme ON/OFF ratio” value stood at 2.15.

With U7G U8C G9A U10G U11A C12A C13U, the “aptazyme ON/OFF ratio” value stood at 1.11.

Consider U7G U8C G9A U10G U11A C12A C13G, for which the “aptazyme ON/OFF ratio” value is 1.09.

With U7G U8C G9A U10G U11A C12A C13A, the “aptazyme ON/OFF ratio” value worked out at 1.04.

Consider U7G U8A U11A C12U C13A, for which the “aptazyme ON/OFF ratio” value was 1.31.

Regarding U7G U8A U11A C12U C13U, the “aptazyme ON/OFF ratio” value worked out at 1.36.

As to U7G U8A U11A C12U C13G, the “aptazyme ON/OFF ratio” value was 1.26.

Take U7G U8A U11G C12U C13G: the “aptazyme ON/OFF ratio” value came to 1.26.

With U7G U8A U11G C12U C13U, the “aptazyme ON/OFF ratio” value was determined as 1.17.

On to U7G U8A U11G C12U C13A, for which the “aptazyme ON/OFF ratio” value was 1.34.

U7G U8C G9A U10A C12G C13G: the “aptazyme ON/OFF ratio” value amounted to 1.08.

With U7G U8C G9A U10A C12G C13U, the “aptazyme ON/OFF ratio” value is 1.15.

In the case of U7G U8C G9A U10A C12G C13A, the “aptazyme ON/OFF ratio” value stood at 1.07.

Take U7G U8A U11A C12G C13G: the “aptazyme ON/OFF ratio” value was 1.18.

Consider U7G U8A U11A C12G C13U, for which the “aptazyme ON/OFF ratio” value was determined as 1.21.

Regarding U7G U8A U11A C12G C13A, the “aptazyme ON/OFF ratio” value came out at 1.08.

For U7G U8C G9A U10G C12A C13G, the “aptazyme ON/OFF ratio” value turned out to be 1.03.

As to U7G U8C G9A U10G C12A C13U, the “aptazyme ON/OFF ratio” value stood at 1.09.

On to U7G U8C G9A U10G C12A C13A, for which the “aptazyme ON/OFF ratio” value worked out at 1.07.

As to U7G U8C G9A U11A C12A C13G, the “aptazyme ON/OFF ratio” value is 1.07.

For U7G U8C G9A U11A C12A C13U, the “aptazyme ON/OFF ratio” value came to 1.11.

Take U7G U8C G9A U11A C12A C13A: the “aptazyme ON/OFF ratio” value worked out at 1.08.

For the variant U7G U8C G9A U10C U11G C12U, the “aptazyme ON/OFF ratio” value turned out to be 1.37.

For U7G U8C G9A U10C U11G C12G, the “aptazyme ON/OFF ratio” value amounted to 1.12.

On to U7G U8C G9A U10C U11G C12A, for which the “aptazyme ON/OFF ratio” value was 1.07.

Regarding U7G U8A U11G C13U, the “aptazyme ON/OFF ratio” value turned out to be 1.21.

For the variant U7G U8A U11G C13A, the “aptazyme ON/OFF ratio” value was found to be 1.2.

As for U7G U8A U11G C13G, the “aptazyme ON/OFF ratio” value came out at 1.15.

In the case of U7G U8C G9A U10G U11C C13A, the “aptazyme ON/OFF ratio” value was found to be 1.14.

As for U7G U8C G9A U10G U11C C13G, the “aptazyme ON/OFF ratio” value came to 1.07.

Regarding U7G U8C G9A U10G U11C C13U, the “aptazyme ON/OFF ratio” value came to 1.05.

Turning to U7G U8C G9A U10C C12G C13U, the “aptazyme ON/OFF ratio” value came out at 1.28.

U7G U8C G9A U10C C12G C13G: the “aptazyme ON/OFF ratio” value was 1.19.

On to U7G U8C G9A U10C C12G C13A, for which the “aptazyme ON/OFF ratio” value came to 1.12.

Take U7G U8C G9A U10G U11G C12A C13A: the “aptazyme ON/OFF ratio” value stood at 1.13.

For the variant U7G U8C G9A U10G U11G C12A C13G, the “aptazyme ON/OFF ratio” value worked out at 1.1.

For U7G U8C G9A U10G U11G C12A C13U, the “aptazyme ON/OFF ratio” value came out at 1.3.

As for U7G U8C G9A U10G U11A C12G C13G, the “aptazyme ON/OFF ratio” value is 1.24.

Turning to U7G U8C G9A U10G U11A C12G C13A, the “aptazyme ON/OFF ratio” value was 1.09.

As to U7G U8C G9A U10G U11A C12G C13U, the “aptazyme ON/OFF ratio” value was found to be 1.12.

With U7G U8C G9A U10C C12U C13U, the “aptazyme ON/OFF ratio” value came out at 1.08.

As to U7G U8C G9A U10C C12U C13A, the “aptazyme ON/OFF ratio” value was found to be 1.15.

For the variant U7G U8C G9A U10C C12U C13G, the “aptazyme ON/OFF ratio” value amounted to 1.11.

Turning to U7G U8C C13U, the “aptazyme ON/OFF ratio” value was found to be 1.46.

For U7G U8C C13G, the “aptazyme ON/OFF ratio” value came to 1.07.

In the case of U7G U8C C13A, the “aptazyme ON/OFF ratio” value stood at 1.21.

For the variant U7G U8C G9A U11A, the “aptazyme ON/OFF ratio” value stood at 2.48.

The values above are taken from the RNAGym collection of RNA variant scans (doi:10.1021/acssynbio.7b00057).
